Values joined by “and” are separate entries in the source; they are usually repeats but may differ in a detail not shown here. Identical values can stand only once.
Tests used:
CC(C)(C)OC(=O)NC1CCOC1=O = experiment: purified protein; conditions: 1 mM Hepes pH 7.5, 30 μM ZnSO4, 1% methanol, dizinc enzyme
CCCC(=O)N[C@H]1CCOC1=O = experiment: purified protein; conditions: 1 mM Hepes pH 7.5, 30 μM ZnSO4, 1% methanol, dizinc enzyme
CCCCC(=O)N[C@H]1CCOC1=O = experiment: purified protein; conditions: 1 mM Hepes pH 7.5, 30 μM ZnSO4, 1% methanol, dizinc enzyme
[1] = tested on: CCCCCC(=O)CC(=O)N[C@H]1CCOC1=O; experiment: purified protein; conditions: 1 mM Hepes pH 7.5, 30 μM ZnSO4, 1% methanol, dizinc enzyme
CCCCCC(=O)N[C@H]1CCOC1=O = experiment: purified protein; conditions: 1 mM Hepes pH 7.5, 30 μM ZnSO4, 1% methanol, dizinc enzyme
[2] = tested on: CCCCCCC(=O)N[C@H]1CCOC1=O; experiment: purified protein; conditions: 1 mM Hepes pH 7.5, 30 μM ZnSO4, 1% methanol, dizinc enzyme
[3] = tested on: CCCCCCCC(=O)N[C@H]1CCOC1=O; experiment: purified protein; conditions: 1 mM Hepes pH 7.5, 30 μM ZnSO4, 1% methanol, dizinc enzyme
[4] = tested on: CCCCCCCCCC(=O)N[C@H]1CCOC1=O; experiment: purified protein; conditions: 1 mM Hepes pH 7.5, 30 μM ZnSO4, 1% methanol, dizinc enzyme
[5] = tested on: CCCCCCCCCCCC(=O)N[C@H]1CCOC1=O; experiment: purified protein; conditions: 1 mM Hepes pH 7.5, 30 μM ZnSO4, 1% methanol, dizinc enzyme
[6] = tested on: O=C(/C=C/c1ccccc1)N[C@H]1CCOC1=O; experiment: purified protein; conditions: 1 mM Hepes pH 7.5, 30 μM ZnSO4, 1% methanol, dizinc enzyme
[7] = molecular target: AidC, N-acyl-L-homoserine lactone (AHL) lactonase from Chryseobacterium sp. strain StRB126 (Chryseobacterium sp. strain StRB126); experiment: SEC-MALS

Substance: AidC (Chryseobacterium sp. StRB126)
- Km (CC(C)(C)OC(=O)NC1CCOC1=O): 740 ± 70 µM
- kcat (CC(C)(C)OC(=O)NC1CCOC1=O): 44 ± 1 s⁻¹
- kcat/Km (CC(C)(C)OC(=O)NC1CCOC1=O): 59000 M⁻¹ s⁻¹
- Km (CCCC(=O)N[C@H]1CCOC1=O): 470 ± 60 µM
- kcat (CCCC(=O)N[C@H]1CCOC1=O): 39 ± 2 s⁻¹
- kcat/Km (CCCC(=O)N[C@H]1CCOC1=O): 83000 M⁻¹ s⁻¹
- Km (CCCCC(=O)N[C@H]1CCOC1=O): 130 ± 20 µM
- kcat (CCCCC(=O)N[C@H]1CCOC1=O): 57 ± 3 s⁻¹
- kcat/Km (CCCCC(=O)N[C@H]1CCOC1=O): 440000 M⁻¹ s⁻¹
- Km [1]: 130 ± 20 µM
- kcat [1]: 28 ± 1 s⁻¹
- kcat/Km [1]: 220000 M⁻¹ s⁻¹
- Km (CCCCCC(=O)N[C@H]1CCOC1=O): 61 ± 4 µM
- kcat (CCCCCC(=O)N[C@H]1CCOC1=O): 59 ± 1 s⁻¹
- kcat/Km (CCCCCC(=O)N[C@H]1CCOC1=O): 970000 M⁻¹ s⁻¹
- Km [2]: 47 ± 5 µM
- kcat [2]: 80 ± 2 s⁻¹
- kcat/Km [2]: 1.7e+06 M⁻¹ s⁻¹
- Km [3]: 83 ± 10 µM
- kcat [3]: 45 ± 3 s⁻¹
- kcat/Km [3]: 540000 M⁻¹ s⁻¹
- Km [4]: 12 ± 4 µM
- kcat [4]: 5.2 ± 0.4 s⁻¹
- kcat/Km [4]: 430000 M⁻¹ s⁻¹
- Km [5]: 7 ± 4 µM
- kcat [5]: 0.4 ± 0.05 s⁻¹
- kcat/Km [5]: 57000 M⁻¹ s⁻¹
- Km [6]: 470 ± 80 µM
- kcat [6]: 25 ± 2 s⁻¹
- kcat/Km [6]: 53000 M⁻¹ s⁻¹

Substance: AidC, N-acyl-L-homoserine lactone (AHL) lactonase from Chryseobacterium sp. strain StRB126 (enzyme)
- stoichiometry N [7]: 2 and 4

— PMC4681436
